Experimental findings from patent publication US7608262 are described below.

The experiment addresses recombinant human TNF (human) (UniProt P01375). In words: binding assays of cA2 and recombinant human TNF (format not described).
Chain of UniProt P01375 (P01375 77-233 limits assumed): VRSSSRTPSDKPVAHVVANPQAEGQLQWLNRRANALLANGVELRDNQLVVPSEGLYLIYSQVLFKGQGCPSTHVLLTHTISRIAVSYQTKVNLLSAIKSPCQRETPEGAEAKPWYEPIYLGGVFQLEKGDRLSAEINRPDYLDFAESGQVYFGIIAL

For “chimeric A2 (cA2) anti-TNF monoclonal antibody”, the Ka came out at 1.8e+09 M⁻¹.
